Results published in article PMC3115387 (Proteins, 2011).

Target: the molecule itself
Test: native gel or EMSA

B1: Mitomycin-7-O-methyltransferase (MmcR), recombinant N-His6-MmcR (enzyme, Streptomyces lavendulae)
chain: MTVEQTPENPGTAARAAAEETVNDILQGAWKARAIHVAVELGVPELLQEGPRTATALAEATGAHEQTLRRLLRLLATVGVFDDLGHDDLFAQNALSAVLLPDPASPVATDARFQAAPWHWRAWEQLTHSVRTGEASFDVANGTSFWQLTHEDPKARELFNRAMGSVSLTEAGQVAAAYDFSGAATAVDIGGGRGSLMAAVLDAFPGLRGTLLERPPVAEEARELLTGRGLADRCEILPGDFFETIPDGADVYLIKHVLHDWDDDDVVRILRRIATAMKPDSRLLVIDNLIDERPAASTLFVDLLLLVLVGGAERSESEFAALLEKSGLRVERSLPCGAGPVRIVEIRRA
modifications: selenomethionine (SeMet-labeled protein used for the crystals)
stoichiometry N: 2
